In US20240301052A1 (LANOVA MEDICINES DEVELOPMENT, published 2024):
Read-outs that look alike come from different tables or passages of the source.

T1: human SLC34A2 (human, UniProt O95436 1-690)
T1 sequence (looked up): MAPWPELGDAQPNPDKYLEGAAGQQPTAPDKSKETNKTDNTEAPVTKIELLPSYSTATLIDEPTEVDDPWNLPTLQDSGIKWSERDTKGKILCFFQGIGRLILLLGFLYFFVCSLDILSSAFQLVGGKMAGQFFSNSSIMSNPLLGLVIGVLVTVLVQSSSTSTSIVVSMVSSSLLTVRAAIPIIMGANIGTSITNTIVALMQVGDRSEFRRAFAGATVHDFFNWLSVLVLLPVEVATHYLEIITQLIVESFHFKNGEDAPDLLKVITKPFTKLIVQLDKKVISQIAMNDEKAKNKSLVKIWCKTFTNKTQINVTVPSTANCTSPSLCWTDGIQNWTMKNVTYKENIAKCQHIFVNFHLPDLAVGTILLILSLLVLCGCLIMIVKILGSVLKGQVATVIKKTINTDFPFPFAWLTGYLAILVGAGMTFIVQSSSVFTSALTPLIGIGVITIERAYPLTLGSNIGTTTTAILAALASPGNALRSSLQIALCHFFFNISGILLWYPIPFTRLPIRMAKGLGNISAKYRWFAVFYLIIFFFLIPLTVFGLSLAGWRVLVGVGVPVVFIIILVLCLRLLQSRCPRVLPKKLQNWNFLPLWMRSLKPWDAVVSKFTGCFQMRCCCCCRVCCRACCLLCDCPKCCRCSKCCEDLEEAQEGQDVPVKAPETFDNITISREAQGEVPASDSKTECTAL

T2: Rhesus SLC34A2 (Rhesus, UniProt F7HDA3 1-690)
T2 construct: whole, on cells
T2 sequence: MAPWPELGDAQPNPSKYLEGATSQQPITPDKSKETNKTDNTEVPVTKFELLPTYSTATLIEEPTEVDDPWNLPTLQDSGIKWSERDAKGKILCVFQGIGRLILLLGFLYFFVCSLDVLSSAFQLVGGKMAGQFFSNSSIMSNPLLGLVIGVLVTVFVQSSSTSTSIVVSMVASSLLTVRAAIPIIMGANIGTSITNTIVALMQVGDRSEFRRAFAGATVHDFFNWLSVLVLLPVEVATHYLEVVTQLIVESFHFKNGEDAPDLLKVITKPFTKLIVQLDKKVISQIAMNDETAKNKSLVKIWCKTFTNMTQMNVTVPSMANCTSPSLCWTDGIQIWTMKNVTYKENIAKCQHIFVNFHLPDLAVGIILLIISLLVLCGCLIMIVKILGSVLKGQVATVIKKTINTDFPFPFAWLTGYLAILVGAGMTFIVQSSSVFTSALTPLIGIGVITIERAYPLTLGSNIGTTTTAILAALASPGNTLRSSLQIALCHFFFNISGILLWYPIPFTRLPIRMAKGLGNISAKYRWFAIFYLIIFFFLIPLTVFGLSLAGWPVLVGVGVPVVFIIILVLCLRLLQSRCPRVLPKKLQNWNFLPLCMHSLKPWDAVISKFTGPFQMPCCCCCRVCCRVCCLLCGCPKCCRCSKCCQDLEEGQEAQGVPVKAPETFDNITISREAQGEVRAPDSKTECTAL


Key:
human SLC34A2 [1] = target: T1, human SLC34A2; assay: FACS, OVCAR3 cells
human SLC34A2 [2] = target: T1, human SLC34A2; assay: cell-based or functional assay
human SLC34A2 [3] = target: T1, human SLC34A2; assay: FACS, OVCAR3 cells
Method in brief: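 Flow cytometry binding: cells (OVCAR3, or HEK293 transfected with human SLC34A2) exposed 60 min at 4° C to chimeric hIgG1, 8-point 4-fold series starting 200 nM. Washed, stained 30 min at 4° C with fluorescent anti-human secondary, then analysed.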

human SLC34A2 [4] = target: T1, human SLC34A2; assay: FACS, RMG-1 cells
Method in brief: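 Flow-cytometric binding of chimeric antibodies (8-point, 4-fold dilutions from 200 nM) to RMG-1 cells, 60 min at 4° C, followed by fluorescent secondary antibody for 30 min at 4° C.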

human SLC34A2 [5] = target: T1, human SLC34A2; assay: FACS, HEK293/human SLC34A2 cells
Description: Briefly, OVCAR3 cells or HEK293 cells expressing human SLC34A2 were incubated with chimeric antibodies (from 200 nM, 4 folds dilution, 8 points). After incubation at 4° C. for 60 minutes, the cells were washed with FACS buffer twice, then stained with fluorescent conjugated secondary antibody at 4° C. for 30 minutes. After that the cells were washed twice and analyzed by flow cytometry.

human SLC34A2 [6] = target: T1, human SLC34A2; assay: cell-based or functional assay; remark: listed apart in the source
Rhesus SLC34A2 [7] = target: T2, Rhesus SLC34A2; assay: FACS, HEK293/Rhesus SLC34A2 cells
human SLC34A2 [8] = target: T1, human SLC34A2; assay: FACS, RMG-1 cells; remark: listed apart in the source
Method in brief: (§1)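 Cell-surface binding by flow cytometry: hu Abs on SLC34A2-expressing cells, 60 min at 4° C.; 2× FACS buffer wash; fluorescent-conjugated secondary 30 min at 4° C.; 2× wash, then acquisition.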

human SLC34A2 [9] = target: T1, human SLC34A2; assay: FACS, OVCAR3 cells; remark: listed apart in the source
human SLC34A2 [10] = target: T1, human SLC34A2; assay: FACS, HEK293/human SLC34A2 cells; remark: listed apart in the source
Description: The PTM-derisked VH chains were first tested for their impact on target binding. Cell based binding of PTM Abs on human SLC34A2 expressing cells were assessed using flow cytometry. Briefly, the HEK293/H_SLC34A2 cells were incubated with PTM Abs (from 200 nM, 4 folds dilution, 8 points). After incubation at 4° C. for 60 minutes, the cells were washed with FACS buffer twice, then stained with fluorescent conjugated secondary antibody at 4° C. for 30 minutes. After that the cells were washed twice and analyzed by flow cytometry.

Rhesus SLC34A2 [11] = target: T2, Rhesus SLC34A2; assay: FACS, HEK293/Rhesus SLC34A2 cells; remark: listed apart in the source
human SLC34A2 [12] = target: T1, human SLC34A2; assay: cell-based or functional assay; remark: listed apart in the source
human SLC34A2 [13] = target: T1, human SLC34A2; assay: FACS, HEK293/human SLC34A2 cells; remark: listed apart in the source
Method in brief: as §1

human SLC34A2 [14] = target: T1, human SLC34A2; assay: FACS, OVCAR3 cells; remark: listed apart in the source
Rhesus SLC34A2 [15] = target: T2, Rhesus SLC34A2; assay: FACS, HEK293/Rhesus SLC34A2 cells; remark: listed apart in the source
human SLC34A2 [16] = target: T1, human SLC34A2; assay: FACS, OVCAR3 cells; remark: listed apart in the source
Method in brief: as §1

human SLC34A2 [17] = target: T1, human SLC34A2; assay: FACS, OVCAR3 cells; remark: listed apart in the source

Molecule	EC50 (human SLC34A2 [8])	Top (human SLC34A2 [8])	EC50 (human SLC34A2 [10])	Top (MFI) (human SLC34A2 [10])	EC50 (Rhesus SLC34A2 [11])	Top (MFI) (Rhesus SLC34A2 [11])	ADCC reporter EC50 (human SLC34A2 [12])	ADCC reporter Top (MFI) (human SLC34A2 [12])	EC50 (human SLC34A2 [13])	Top (human SLC34A2 [13])	EC50 (human SLC34A2 [14])	Top (MFI) (human SLC34A2 [14])	EC50 (Rhesus SLC34A2 [15])	Top (MFI) (Rhesus SLC34A2 [15])	EC50 (human SLC34A2 [16])	further results
hIgG1 Isotype (antibody)																EC50 (human SLC34A2 [1]): 2900 nM; Top (MFI) (human SLC34A2 [1]): 1570 MFI
xi71F7D4 hIgG1 (antibody, V domains shown, chimeric, hIgG1) VH: DVKLVESGGDLVKLGGSLKLSCAASGFTFSNYYMSWVRQTPEKRLELVAVINSNGGTTYYPDNMKGRFTISRDNAKNTLYLQTSSLKSEDTALYYCGRHEHYYGTNIAWFAYWGQGTLVTVSA VL: DIVMTQSHKFMSTSVGDRVSITCKASQDVTTAVAWYQQKPGQSPKLLIYWASTRHTGVPDRFTGSGSGTDHTLTISSVQAEDLALYYCQQHYSTPVTFGGGTKLEIK																ADCC reporter EC50 (human SLC34A2 [2]): 3.6 nM; ADCC reporter Top (MFI) (human SLC34A2 [2]): 247000 MFI; EC50 (human SLC34A2 [3]): 7.86 nM; Top (MFI) (human SLC34A2 [3]): 28900 MFI; EC50 (human SLC34A2 [4]): 8.36 nM; Top (MFI) (human SLC34A2 [4]): 10200 MFI; EC50 (human SLC34A2 [5]): 2.11 nM; Top (MFI) (human SLC34A2 [5]): 47900 MFI; cytotoxicity EC50 (human SLC34A2 [6]): 0.83 nM; cytotoxicity Inhibition % (human SLC34A2 [6]): 99.4%; Top (MFI) (Rhesus SLC34A2 [7]): 5.4e+06 MFI
63A11D5B4 VH_P1/VL hIgG1 (antibody, V domains shown, PTM-derisked chimeric, hIgG1; that P1 is the SG version follows from the humanized .p1 chains; also called 63A11D5B4.p1 hIgG1) VH: QVQLQQPGAELVKPGASVKMSCRTSGYTFITYNMHWVKQTPGQGREWIGAIYPGSGDTSYNQKFKGKATLTADKSSSTAYMQLNSLTSEDSAVYYCSISTIITTGAVDYWGQGTSVTVAS VL: DIVMTQSHKFMSTSVGDRVSITCKASQDVGTAVAWYQQKAGQSPKLLIYWTSTRHTGVPDRFTGSGSGTDFTLIIRSLQSEDLADYFCQQYSRIPLTFGSGTKLEIK	12.5 nM	11700 MFI	1.48 nM	30400 MFI	3.9 nM	39400 MFI	2.83 nM	114000 MFI	2.79 nM	35600 MFI	7.5 nM	75200 MFI	0.7 nM	13800 MFI	4.03 nM	EC50 (human SLC34A2 [9]): 4.03 nM; Top (MFI) (human SLC34A2 [9]): 28200 MFI
91C9F1.p1 hIgG1 (antibody, V domains shown, PTM-derisked chimeric, hIgG1; also called 91C9F1.pl hIgG1) VH: EVQLQQSGPELVKPGTSVKISCKTSGFFFTEYIIHWVKQSHGRSLEWIGGIIPNNDVTNYKQNFRGKAALTADKSSNTAYMELRSLTSEDSAVYYCARWRNAYYSAMDSWGQGTSVTVSS VL: DIVVTQSHKFMSTSLGDRVSITCTASQDVGTAVAWYQQKPGHSPKLLIYWASTRHTGVPERFTGSGSGTDFTLTITNVQSEDLADYFCQQYRTSPLTFGVGTKLELK	1.09 nM	9690 MFI	0.68 nM	28200 MFI	2.8 nM	26400 MFI	3.31 nM	143000 MFI	2.29 nM	32300 MFI	1 nM	63500 MFI	0.8 nM	7970 MFI	1.1 nM	EC50 (human SLC34A2 [17]): 2.29 nM; Top (MFI) (human SLC34A2 [17]): 32300 MFI; Top (human SLC34A2 [16]): 19500 MFI
